Results on 4 molecules are retold here after patent publication US20260242735A1 (UNIVERSIT T BASEL, published 2026).

In one assay the target is human CD33 L229A (human, UniProt P20138 18-364). The assay is described as follows: alanine scan, flow cytometry.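 Further: HEK293-T cells transiently expressing single-residue alanine mutants of CD33 (alanine swapped to serine), antibody binding read by fluorescence in duplicate, background-subtracted, expressed relative to wild-type CD33.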
In the next assay the target is human CD33 N230A (human, UniProt P20138 18-364). The assay is described as follows: alanine scan, flow cytometry.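 Further: HEK293-T cells transiently expressing single-residue alanine mutants of CD33 (alanine swapped to serine), antibody binding read by fluorescence in duplicate, background-subtracted, expressed relative to wild-type CD33.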 A general note: A flow cytometer gives signals particle by particle.
The target in a further assay is human CD33 P203A (human, UniProt P20138 18-364). Description: alanine scan, flow cytometry.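 Further: HEK293-T cells transiently expressing single-residue alanine mutants of CD33 (alanine swapped to serine), antibody binding read by fluorescence in duplicate, background-subtracted, expressed relative to wild-type CD33.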
Another assay addresses human CD33 F243A (human, UniProt P20138 18-364). Description: alanine scan, flow cytometry.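 Further: HEK293-T cells transiently expressing single-residue alanine mutants of CD33 (alanine swapped to serine), antibody binding read by fluorescence in duplicate, background-subtracted, expressed relative to wild-type CD33.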
The target in a further assay is human CD33 G249A (human, UniProt P20138 18-364). Description: alanine scan, flow cytometry.
A further assay concerns the target human CD33 T208A (human, UniProt P20138 18-364). Description: alanine scan, flow cytometry.
For a further assay, the target named is human CD33 G263A (human, UniProt P20138 18-364). Description: alanine scan, flow cytometry.
The next assay concerns the target human CD33 T211A (human, UniProt P20138 18-364). Description: alanine scan, flow cytometry.
In the next assay the target is human CD33 S248A (human, UniProt P20138 18-364). The assay is described as follows: alanine scan, flow cytometry.
The target in the next assay is human CD33 F216A (human, UniProt P20138 18-364). The assay is described as follows: alanine scan, flow cytometry.
Another assay addresses human CD33 N237A (human, UniProt P20138 18-364). The assay is described as follows: alanine scan, flow cytometry.
For the next assay, the target named is human CD33 G207A (human, UniProt P20138 18-364). The assay is described as follows: alanine scan, flow cytometry.
Another assay deals with human CD33 L210A (human, UniProt P20138 18-364). Description: alanine scan, flow cytometry.
A further assay deals with human CD33 L270A (human, UniProt P20138 18-364). Description: alanine scan, flow cytometry.
The target of the next assay is human CD33 A217S (human, UniProt P20138 18-364). The assay is described as follows: alanine scan, flow cytometry.
The next assay concerns the target human CD33 Q236A (human, UniProt P20138 18-364). Description: alanine scan, flow cytometry.
For the next assay, the target named is human CD33 I47L (human, UniProt P20138 18-364). Description: flow cytometry on transfected cells, IgG.
The next assay addresses human CD33 F44L (human, UniProt P20138 18-364). Description: flow cytometry on transfected cells, IgG.
The target in a further assay is human CD33 Y49I (human, UniProt P20138 18-364). The assay is described as follows: flow cytometry on transfected cells, IgG.
Another assay concerns the target human CD33 Y49T (human, UniProt P20138 18-364). Description: flow cytometry on transfected cells, IgG.
A further assay has as its target human CD33 Y50D (human, UniProt P20138 18-364). Description: flow cytometry on transfected cells, IgG.
A further assay has as its target human CD33 Y49L (human, UniProt P20138 18-364). The assay is described as follows: flow cytometry on transfected cells, IgG.
The next assay deals with human CD33 F44S (human, UniProt P20138 18-364). The assay is described as follows: flow cytometry on transfected cells, IgG.
A further assay has as its target human CD33 P46I (human, UniProt P20138 18-364). The assay is described as follows: flow cytometry on transfected cells, IgG.
In another assay the target is human CD33 P48Y (human, UniProt P20138 18-364). Description: flow cytometry on transfected cells, IgG.
The next assay has as its target human CD33 I47G (human, UniProt P20138 18-364). The assay is described as follows: flow cytometry on transfected cells, IgG.
A further assay concerns the target human CD33 I47F (human, UniProt P20138 18-364). The assay is described as follows: flow cytometry on transfected cells, IgG.
Another assay addresses human CD33 P46Y (human, UniProt P20138 18-364). The assay is described as follows: flow cytometry on transfected cells, IgG.
For a further assay, the target named is human CD33 P46D (human, UniProt P20138 18-364). The assay is described as follows: flow cytometry on transfected cells, IgG.
The target of another assay is human CD33 P48I (human, UniProt P20138 18-364). Description: flow cytometry on transfected cells, IgG.
The target of another assay is human CD33 P48L (human, UniProt P20138 18-364). The assay is described as follows: flow cytometry on transfected cells, IgG.
In a further assay the target is human CD33 Y49Q (human, UniProt P20138 18-364). The assay is described as follows: flow cytometry on transfected cells, IgG.
Another assay addresses human CD33 P46S (human, UniProt P20138 18-364). The assay is described as follows: flow cytometry on transfected cells, IgG.
In another assay the target is human CD33 P46L (human, UniProt P20138 18-364). The assay is described as follows: flow cytometry on transfected cells, IgG.
Another assay concerns the target human CD33 P48N (human, UniProt P20138 18-364). The assay is described as follows: flow cytometry on transfected cells, IgG.
The next assay deals with human CD33 Y50G (human, UniProt P20138 18-364). The assay is described as follows: flow cytometry on transfected cells, IgG.
Another assay has as its target human CD33 F44E (human, UniProt P20138 18-364). The assay is described as follows: flow cytometry on transfected cells, IgG.
In another assay the target is human CD33 I47Y (human, UniProt P20138 18-364). Description: flow cytometry on transfected cells, IgG.
The target in the next assay is human CD33 Y49G (human, UniProt P20138 18-364). The assay is described as follows: flow cytometry on transfected cells, IgG.

Sequence of human CD33 G249A (P20138 18-364 G249A limits assumed): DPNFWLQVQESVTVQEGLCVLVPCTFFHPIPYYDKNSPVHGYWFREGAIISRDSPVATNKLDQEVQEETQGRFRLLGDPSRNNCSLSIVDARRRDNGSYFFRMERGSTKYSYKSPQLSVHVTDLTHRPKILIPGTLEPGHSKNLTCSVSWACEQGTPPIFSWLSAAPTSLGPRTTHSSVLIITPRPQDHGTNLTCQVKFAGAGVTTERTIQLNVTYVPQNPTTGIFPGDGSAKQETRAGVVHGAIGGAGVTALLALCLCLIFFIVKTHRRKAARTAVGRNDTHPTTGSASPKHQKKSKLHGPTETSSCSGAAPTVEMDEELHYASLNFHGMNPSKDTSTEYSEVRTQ
Sequence of human CD33 F44S (P20138 18-364 F44S limits assumed): as the sequence (P20138 18-364 G249A limits assumed) above, with F27S, A232G counted along it
Sequence of human CD33 F44L (P20138 18-364 F44L limits assumed): as the sequence (P20138 18-364 G249A limits assumed) above, with F27L, A232G counted along it
Sequence of human CD33 P46S (P20138 18-364 P46S limits assumed): as the sequence (P20138 18-364 G249A limits assumed) above, with P29S, A232G counted along it
Sequence of human CD33 P46Y (P20138 18-364 P46Y limits assumed): as the sequence (P20138 18-364 G249A limits assumed) above, with P29Y, A232G counted along it
Sequence of human CD33 I47L (P20138 18-364 I47L limits assumed): as the sequence (P20138 18-364 G249A limits assumed) above, with I30L, A232G counted along it
Sequence of human CD33 I47Y (P20138 18-364 I47Y limits assumed): as the sequence (P20138 18-364 G249A limits assumed) above, with I30Y, A232G counted along it
Sequence of human CD33 P48I (P20138 18-364 P48I limits assumed): as the sequence (P20138 18-364 G249A limits assumed) above, with P31I, A232G counted along it
Sequence of human CD33 N230A (P20138 18-364 N230A limits assumed): as the sequence (P20138 18-364 G249A limits assumed) above, with N213A, A232G counted along it
Sequence of human CD33 L270A (P20138 18-364 L270A limits assumed): as the sequence (P20138 18-364 G249A limits assumed) above, with A232G, L253A counted along it
Sequence of human CD33 P203A (P20138 18-364 P203A limits assumed): as the sequence (P20138 18-364 G249A limits assumed) above, with P186A, A232G counted along it
Sequence of human CD33 Y49L (P20138 18-364 Y49L limits assumed): as the sequence (P20138 18-364 G249A limits assumed) above, with Y32L, A232G counted along it
Sequence of human CD33 G263A (P20138 18-364 G263A limits assumed): as the sequence (P20138 18-364 G249A limits assumed) above, with A232G, G246A counted along it
Sequence of human CD33 L229A (P20138 18-364 L229A limits assumed): as the sequence (P20138 18-364 G249A limits assumed) above, with L212A, A232G counted along it
Procedure for human CD33 A217S: (§1) An alanine scan on human CD33 was performed to the determine the residues on CD33 that are involved in binding to the antibodies investigated. […] Briefly, a mutation library of CD33 was created by high-throughput, site-directed mutagenesis. Each residue was individually mutated to alanine, with alanine codons mutated to serine. The mutant library was arrayed in 384-well microplates and transiently transfected into HEK293-T. Following transfection, cells were incubated with the indicated antibodies (IgG or Fab) at concentrations pre-determined using an independent immunofluorescence titration curve on wild type CD33. […] Binding of each antibody to each mutant clone was determined in duplicates. For each point, background fluorescence was subtracted from the raw data, which were then normalized to antibody reactivity with wild type CD33.
(§2) Critical residues for antibody binding (outlined in dark grey) were residues whose mutations led to a binding of the test Abs of less than 20%. Additional secondary residues (outlined in light grey) were identified that led to a binding of the test Abs of between 20 and 40% as compared to the wild type CD33.
Procedure for human CD33 F216A: as §1, §2
Procedure for human CD33 F243A: as §1, §2
Procedure for human CD33 F44E: as §1
(§3) Antibodies were screened for binding to the human CD33 variants in IgG format. […] For each mutation, background fluorescence was subtracted from the raw data, which were then normalized to antibody reactivity with wild-type CD33.
Procedure for human CD33 F44L: as §1, §3
Procedure for human CD33 F44S: as §1, §3
Procedure for human CD33 G207A: as §1, §2
Procedure for human CD33 G249A: as §1, §2
Procedure for human CD33 G263A: as §1, §2
Procedure for human CD33 I47F: as §1, §3
Procedure for human CD33 I47G: as §1, §3
Procedure for human CD33 I47L: as §1, §3
Procedure for human CD33 I47Y: as §1, §3
Procedure for human CD33 L210A: as §1, §2
Procedure for human CD33 L229A: as §1, §2
Procedure for human CD33 L270A: as §1, §2
Procedure for human CD33 N230A: as §1, §2
Procedure for human CD33 N237A: as §1, §2
Procedure for human CD33 P203A: as §1, §2
Procedure for human CD33 P46D: as §1, §3
Procedure for human CD33 P46I: as §1, §3
Procedure for human CD33 P46L: as §1, §3
Procedure for human CD33 P46S: as §1, §3
Procedure for human CD33 P46Y: as §1, §3
Procedure for human CD33 P48I: as §1, §3
Procedure for human CD33 P48L: as §1, §3
Procedure for human CD33 P48N: as §1, §3
Procedure for human CD33 P48Y: as §1, §3
Procedure for human CD33 Q236A: as §1, §2
Procedure for human CD33 S248A: as §1, §2
Procedure for human CD33 T208A: as §1, §2
Procedure for human CD33 T211A: as §1, §2
Procedure for human CD33 Y49G: as §1, §3
Procedure for human CD33 Y49I: as §1, §3
Procedure for human CD33 Y49L: as §1, §3
Procedure for human CD33 Y49Q: as §1, §3
Procedure for human CD33 Y49T: as §1, §3
Procedure for human CD33 Y50D: as §1, §3
Procedure for human CD33 Y50G: as §1, §3

B1: Refmab #6 (antibody, V domains shown)
VH: QVQLQQPGAEVVKPGASVKMSCKASGYTFTSYYIHWIKQTPGQGLEWVGVIYPGNDDISYNQKFQGKATLTADKSSTTAYMQLSSLTSEDSAVYYCAREVRLRYFDVWGQGTTVTVSS
VL: EIVLTQSPGSLAVSPGERVTMSCKSSQSVFFSSSQKNYLAWYQQIPGQSPRLLIYWASTRESGVPDRFTGSGSGTDFTLTISSVQPEDLAIYYCHQYLSSRTFGQGTKLEIK
notes: Full-length format is human IgG1 Fc silent (PG-LALA); also made as Fab; The alanine scan used IgG or Fab
Regarding B1, the “Mean % WT Binding” value in the assay with human CD33 L229A was found to be 97.1 % WT binding; with human CD33 N230A, 83.8 % WT binding; with human CD33 P203A it was 103 % WT binding; with human CD33 F243A, 98.2 % WT binding; with human CD33 G249A, 96.6 % WT binding; in the assay with human CD33 T208A it was 116 % WT binding. In addition, the “Mean % WT Binding” value in the assay with human CD33 G263A turned out to be 94.3 % WT binding; with human CD33 T211A it was 92.2 % WT binding; with human CD33 S248A, 94.4 % WT binding; with human CD33 F216A it was 82.5 % WT binding; with human CD33 N237A, 101 % WT binding; in the assay with human CD33 G207A it was 98.6 % WT binding. For the same molecule, the “Mean % WT Binding” value with human CD33 L210A was found to be 96.9 % WT binding; with human CD33 L270A, 105 % WT binding; with human CD33 A217S, 91 % WT binding; with human CD33 Q236A, 103 % WT binding.

B2: Refmab #6 (antibody, human IgG1, V domains shown)
VH: B1 VH
VL: B1 VL
With B2, the “Mean % WT Binding” value came out at 99.1 % WT binding in the assay with human CD33 I47L; 104 % WT binding with human CD33 F44L; 113 % WT binding with human CD33 Y49I; 121 % WT binding with human CD33 Y49T; 129 % WT binding in the assay with human CD33 Y50D; 97.9 % WT binding in the assay with human CD33 Y49L. For the same molecule, the “Mean % WT Binding” value worked out at 86.1 % WT binding with human CD33 F44S; 98.5 % WT binding with human CD33 P46I; 79.1 % WT binding with human CD33 P48Y; 105 % WT binding in the assay with human CD33 I47G; 105 % WT binding with human CD33 I47F; 79.9 % WT binding in the assay with human CD33 P46Y. Besides, the “Mean % WT Binding” value stood at 104 % WT binding with human CD33 P46D; 102 % WT binding with human CD33 P48I; 104 % WT binding in the assay with human CD33 P48L; 115 % WT binding with human CD33 Y49Q; 110 % WT binding with human CD33 P46S; 107 % WT binding with human CD33 P46L. Moreover, the “Mean % WT Binding” value was 98.4 % WT binding in the assay with human CD33 P48N; 115 % WT binding with human CD33 Y50G; 102 % WT binding in the assay with human CD33 F44E; 105 % WT binding with human CD33 I47Y; 121 % WT binding with human CD33 Y49G.

B3: Refmab #5 (antibody, V domains shown)
VH: QVQLVQSGAEVKKPGASVKVSCKASGYTFTNYDINWVRQAPGQGLEWIGWIYPGDGSTKYNEKFKAKATLTADTSTSTAYMELRSLRSDDTAVYYCASGYEDAMDYWGQGTTVTVSS
VL: DIQMTQSPSSLSASVGDRVTINCKASQDINSYLSWFQQKPGKAPKTLIYRANRLVDGVPSRFSGSGSGQDYTLTISSLQPEDFATYYCLQYDEFPLTFGGGTKVEIK
notes: as for B1
On to B3, for which the “Mean % WT Binding” value with human CD33 L229A came to 106 % WT binding; with human CD33 N230A, 105 % WT binding; in the assay with human CD33 P203A, 105 % WT binding; in the assay with human CD33 F243A it was 103 % WT binding; with human CD33 G249A, 105 % WT binding; with human CD33 T208A it was 100 % WT binding. Further, the “Mean % WT Binding” value with human CD33 G263A was 104 % WT binding; with human CD33 T211A, 80.4 % WT binding; with human CD33 S248A, 105 % WT binding; in the assay with human CD33 F216A it was 104 % WT binding; with human CD33 N237A it was 91.8 % WT binding; with human CD33 G207A, 109 % WT binding. Moreover, the “Mean % WT Binding” value with human CD33 L210A came out at 78.2 % WT binding; with human CD33 L270A, 91 % WT binding; with human CD33 A217S, 121 % WT binding; in the assay with human CD33 Q236A it was 100 % WT binding.

B4: Refmab #5 (antibody, human IgG1, V domains shown)
VH: B3 VH
VL: B3 VL
Regarding B4, the “Mean % WT Binding” value with human CD33 I47L was 107 % WT binding; with human CD33 F44L, 109 % WT binding; in the assay with human CD33 Y49I, 0.5 % WT binding; in the assay with human CD33 Y49T, 0.5 % WT binding; with human CD33 Y50D it was 2.5 % WT binding; with human CD33 Y49L, 0.8 % WT binding. Besides, the “Mean % WT Binding” value in the assay with human CD33 F44S is 104 % WT binding; in the assay with human CD33 P46I, 100 % WT binding; with human CD33 P48Y it was 1.5 % WT binding; with human CD33 I47G it was 80.9 % WT binding; in the assay with human CD33 I47F it was 90.5 % WT binding; with human CD33 P46Y, 48 % WT binding. Besides, the “Mean % WT Binding” value in the assay with human CD33 P46D turned out to be 76 % WT binding; in the assay with human CD33 P48I, 4 % WT binding; in the assay with human CD33 P48L, 18.9 % WT binding; with human CD33 Y49Q, 2.3 % WT binding; with human CD33 P46S, 98.7 % WT binding; with human CD33 P46L, 87.2 % WT binding. Besides, the “Mean % WT Binding” value in the assay with human CD33 P48N amounted to 4.4 % WT binding; with human CD33 Y50G, 5 % WT binding; in the assay with human CD33 F44E, 97 % WT binding; in the assay with human CD33 I47Y, 94.5 % WT binding; in the assay with human CD33 Y49G it was 0.8 % WT binding.
